Results taken from the DeepSol protein solubility set.

Test: soluble on expression in E. coli; label from the status in PepcDB or PDB records

Sequence | soluble on expression in E. coli
EGDIHMSLSHPPIPILELADHIERLKANDNLKFSQEYESIDPGQQFTWEHSNLEVNKPKNRYANVIAYDHSRVLLSAIEGIPGSDYVNANYIDGYRKQNAYIATQGSLPETFGDFWRMIWEQRSATVVMMTKLEERSRVKCDQYWPSRGTETHGLVQVTLLDTVELATYCVRTFALYKNGSSEKREVRQFQFTAWPDHGVPEHPTPFLAFLRRVKTCNPPDAGPMVVHCSAGVGRTGCFIVIDAMLERIKHEKTVDIYGHVTLMRAQRNYMVQTEDQYIFIHDALLEAVTCGNTEVPARNLYAYIQKLTQIETGENVTGMELEFKRLASSKAHTSRFISANLPCNKFKNRLVNIMPYESTRVCLQPIRGVEGSDYINASFLDGYRQQKAYIATQGPLAETTEDFWRMLWEHNSTIVVMLTKLREMGREKCHQYWPAERSARYQYFVVDPMAEYNMPQYILREFKVTDARDGQSRTVRQFQFTDWPEQGVPKSGEGFIDFIGQVHKTKEQFGQDGPISVHCSAGVGRTGVFITLSIVLERMRYEGVVDIFQTVKMLRTQRPAMVQTEDQYQFCYRAALEYLGSFDHYATEGHHHHHH | not soluble
MDPGQRPNPFGAPGAIPKKPCLSQGSPGTSGSGAPCDEPSRSESPGEGPSGTGGSAAAGDITRQAVVAAITEWSRTRQLRISTGASEGKASIKDWIVCQVNSGKFPGVEWEDEERTRFRIPVTPLADPCFEWRRDGELGVVYIRERGNMPVDASFKGTRGRRRMLAALRRTRGLQEIGKGISQDGHHFLVFRVRKPEEEQCVECGVVAGAVHDFNNMARLLQEGFFSPGQCLPGEIVTPVPSCTTAEGQEAVIDWGRLFIRMYYNGEQVHELLTTSQSGCRISSALRRDPAVHYCAVGSPGQVWLPNVPNLACEIAKRELCDTLDACAKGILLTSSCNGIFCVCYHNGPVHFIGNTVPPDSGPLLLPQGKPTRIFNPNTFLVGLANSPLPAPSHVTCPLVKLWLGKPVAVGKLEPHAPSPRDFAARCSNFSDACVVLEIMPKPLWDAMQ | soluble
MSIQNISFLGAGSIAEAIIGGLLHANVVKGEQITVSNRSNETRLQELHKKYGVKGTHNKKELLTDANILFLAMKPKDVAEALTPFKEYINNNVLIISLLAGVSTDSIRKLLQKDVPIIRAMPNTSAAILKSATAISPSKHATAEHIRTATSLFETIGLVSVVEEEDMHAVTALSGSGPAYIYYVVEAMEEAAKKIGLKEDVAKSLILQTMIGAAEMLKASDKHPSILRKEITSPGGTTEAGIEVLQEHKFQQALISCITQATKRSHNLGKTLEQLTKEKLEHHHHHH | soluble
MGSDKIHHHHHHMPKEKYEPPDPRRMYTIMSSEEAANGKKSHWAELEISGKVRSLSSSLWSLTHLTALHLSDNSLSCIPSDIAKLHNLVYLDLSHNQIQSLPAELGNMVSLRELHLNYNQLRVLPFELGKLFQLQTLSLKGNPLTQDILNLCLEPDGTRRLLNYLLDNLSVSTEQPPPRSWIMLQEPDRTRPTALFSVMCYNVLCDKYATRQLYGYCPSWALNWDYRKKAIIQEILSCNADIISLQEVETEQYYSFFLVELKERGYNGFFSPKSRARTMSEQERKHVDGCAIFFKTEKFTLVQKHTVEFNQLAMANSEGSEAMLNRVMTKDNIGVAVLLELRKELIEMSSGKPHLGTEKQLILVANAHMHWDPEYSDVKLVQTMMFLSEVKNIIDKASRSLKSSVLGECGTIPLVLCADLNSLPDSGVVEYLSTGGVETNHKDFKELRYNESLTNFSCNGKNGMTNGRITHGFKLKSAYENGLMPYTNYTFDFKGIIDYIFYSKPQLNTLAILGPLDHHWLVENNISGCPHPLIPSDHFSLFAQLELLLPFLPQVNGIHLPGRR | not soluble
MGSDKIHHHHHHMMEGKDDADLFADLGLSESIASIPSYTFIRDGLNRIFASSNNIWNVLIGTRLTPPKPLSDYDLVHIHNPVPLAGMVSVALHCRIKGIPYCVTTHGISKVPKIPEELGLSRGQRIVFNHGFLRAYKNVLSNATHLFALSEGDQDTITEWFSDQSVSVLPNGVDLNVSPEAPEVDTKVDLPDKPVLLFVGRIMASKGVDDLLEAFSLLEHDCKLIIVGPMRDEHFKDQIHTLSDDVEYRGYVEQAELDALYRRADLFVFPTRSDVFPLVTLEAMAAGTPVVSTTVGGLPEQIPDQVGRLVPPKEPKTFAAAVDGMLSNEQLRTEMGRAGKSLVEERYSWEAVAKAAVTEYYRIVN | not soluble
MGSDKIHHHHHHMANALLQKWVERAERRALFWWQPKNGGVNMGDHLSKVIVSCVLALQDKTLLEKRDLRKKLIATGSVLHFAKDGDTVWGSGINGKIPAERNTFSTLDVRAVRGPKTRAFLLERGIAVPEVYGDPGLLTPMFFPADALGPVTKRPFAIVPHFNEPVEKYSAYAEHLVFPNVKPATFMSALLGAKFVISSSLHGLILAEAYGIPAVYLDWGNGEDRFKYDDYYHGTRRMQWHAGHSVEECMELGGNGSFDLERLQAGLLAAFPYDLW | not soluble
MGSDKIHHHHHHMKFSDIISKLEVTNYSLTQNPNNDPEITGMAAIDEATSGTLSYIEGAKFASFIAKTNASALILPQNEAMQAQAQERGIVWMATPEPRLLFAKAIALFYQPYTPTPEIHPTAVIHPTAKIGNDVYIGPHVVIQPGVEIGNGVIIHPNVVIYPGVKIGDRTILHANCTIEERSQIGADCVIHSGAVIGGEGFGFVPTRTGWYKMEQSGYVVLEDRVDIGCNTTIDRPSVGETRVGYDTKIDNLVQIAHGCQIGAGCAIAAQTGMAGGVKLGNRVILAGQVGIANQAKMGDGSTASAQTGILHDVKPGEVVSGTPAIPHKMYLKIAALYSRLPDMYQAFRQSQRQLEEEGKR | not soluble
SAVPAILQVITESTGLGFAAVARVTEDSWTACAVLDNLGFGLKPGGELELISTICHEIRASHKPVVIDHVAEDELFCAHHTPRRYNFQSYISIPIFLTDGSFFGTICALDPKPAKLTGTPIEAMMVSFARLLALQIEAEENMQRVQ | soluble
MGSDKIHHHHHHMKVVSLLTDFGDFYPGVMKGVILSLAPEARIVDITHSVEPQNILQGAFLLYHSFRYFRNAVHVAVVDPGVGSERRALVIEGKNHFFVGPDNGILYPSAVEDGIKAAYSIKEEISELVGELSSTFHGRDIFAPAAAMVVRGDYTYFEEINKEELEKLELFDCSIQGNKVRCRVVYVDRFGNVVTNLREVKGKGFYFRGVEFPFVKTYSDVDVGKPLSLIGSFGTLELSVREGSAAEMLGIKRGGGWIELEVL | not soluble
MKNFLLLTLILLTACNNSEENTQSIIKNDINKTIIDEEYVNLEPINQSNISFTKHSWVQTCGTQQLLTEQNKESISLSVVAPRLDDDEKYCFDFNGVSNKGEKYITKVTLNVVAPSLEVYVDHASLPTLQQLMDIIKSEEENPTAQRYIAWGRIVPTDEQMKELNITSFALINNHTPADLVQEIVKQAQTKHRLNVKLSSNTAHSFDNLVPILKELNSFNNVTVTNIDLYDDGSAEYVNLYNWRDTLNKTDNLKIGKDYLEDVINGINEDTSNTGTSSVYNWQKLYPANYHFLRKDYLTLEPSLHELRDYIGDSLKQMQWDGFKKFNSKQQELFLSIVNFDKQKLQNEYNSSNLPNFVFTGTTVWAGNHEREYYAKQQINVINNAINESSPHYLGNSYDLFFKGHPGGGIINTLIMQNYPSMVDIPSKISFEVLMMTDMLPDAVAGIASSLYFTIPAEKIKFIVFTSTETITDRETALRSPLVQVMIKLGIVKEENVLFWADLPNCETGVCIAV | soluble
MRLYMEMTNAQRLILSNQYFLMSQLDPNNANKYKRLQTIVERGYELHMRELNREFGCLPETECREIIDIMEMYHAMQESNRMLDDAARKDVDQRRLTFLGFDMATEAQLVNYVRFLVDSEGLYPQFDKGEHHFNSQMPMLAKYRRMLTTWRNCPRQYHLSGNELRQIMNA | not soluble
MGSDKIHHHHHHLKVVCISDTHEQLHNVTVPDGDVLIHAGDFTNNGKREELIKFNEEMTRFPHKYKLVVAGNHELGFDHDENQGERQDADKGLGTEDGYNILTNVTYLQDKGVTIDGVTFFGSSYHPLRGFPFYRNRAEQLAECWKAVPNDTNVLITHTPPLGYLDQFGDERWGCRDLLKTVERIQPAYHIFGHVHEQHGVLSNGNTVCYKLYENEF | not soluble
MDVFDGLPDPIIVDILNKVGDVKTLLRCSSLSKRFNSLVPQSESLTLRLDHSVSDSPVVTSIFRSLFNGLVSLLSKPAKPITITTLSPSLPFKILSRFDRIRNLDVELPGGDVKLEKGAAVKWKAEFGKTLKSCVIVAFRSAGTVSSPVAVEGESDAEFVTGLKTRVVWTISALMAASSRHYLMREVVKEHEEIESLVMRDKEREGTVVMNEEGLKELRNTEARVEDEERVVKNKRSVVPSVRMSMRHAPSLKLKSGICLESATLVIVRPSGADFEVGDDAELATEAFVGDCMYGEAVVALLKCKKNALEMNSF | not soluble
METSDERLAGAAAEGDRGAFALLVERHYDRIFGLSWRLTGSRTEAEDLAQDICAALPMKLRGWRGEARFTTWLYRVVVNASHDLRRRQSAHSRAAAGWGDWELARQDEIGEARAAEEWLAAAMTALPVELRDTVALVLGEEMTQAEAGAVLGLAEGTVAWRMSEVKKRLRAMALREARA | not soluble
MGSDKIHHHHHHMHHSHHLEIYEKLREKLNKAPIGLPKTVSGVEKELLSVLFDEEEAKIAVHMPFIRFTAEQLAERTGKSLEYVEKILNEMAKKGTVWKGEKDGQTYYRLFPVIVGFAETPFWPGPGKDPRQEKLARLWSQYRKEGFLDEIGDREHPIMRALPERDTISEKSEILPYEDAVKLVKERDYIAVGYCPCRVMARLVGEGCRHSIENCIHMGSVGKYMVEHGLGRRISADEAIEILRQSNREGLVHLTERSKHVATICNCCSDCCVFFKAVHEAKHPNTIAHSSYLATVDTSRCIACGICMLRCPMKAIKAKINREPASVDAEKCLGCGVCVPTCPMEAIELVERDELLELPDGMTYVQELLADKGRDPSGLF | not soluble
MNLIFPLFFFALLVGSNAQFQQFCNYCGFIEVPKTWPVAQDSLRSACETLGMATTACKGIINSADLNSSYGKMYPYII | not soluble
MAHHHHHHMQYNLIGSKINNHYVVDPYVSLLYLKRAYKFLRLLKDSGGEAIILGNKHREVHLEHYFGNVQRKETCSLNILTNVTKRYDLLICTDLPLFYPYMRNVLIPKMLVADGATFVKYKTFLHAFDYFIPLTGEKLDRHLHYVLARRYLSGGELR | not soluble
MAHHHHHHMIRKIIILMFTFFSNIHNEKIYHHKQRRKFLKGPLGYLNRNVIQKKHYNLYAKKFINYKEIQIQRINDYRKRSGVDKNNINYNLRDTYNYHETHLFVRNEVLPTLAKIENENLKEKEKNKEIFRNINDYNSNFTRQTFLQFLMDLYNIFLKIDDLFLENKTYFSILIYNGPMQLTNHLYDDIIYVSSVVENSDDVSPSEYCMEYISHLENLCEENKLSFLAHAYVFYKNFHLSKEHLLKSICKYLNIIKKLKSSTYVADVENFEVSQKCFLHLLFCLNKMSRKWSRWEKDNFLASLHNATNKMMILTKHFEKVKS | not soluble
MSLRSELPEGFFGPREWARLNAVADIIPGFPHTDFDTANGAEALAEADILLAAWGTPSLTRERLSRAPRLKMLAYAASSVRMVAPAEFWETSDILVTTAASAMAVPVAEFTYAAIIMCGKDVFRLRDEHRTERGTGVFGSRRGRSLPYLGNHARKVGIVGASRIGRLVMEMLARGTFEIAVYDPFLSAEEAASLGAKKAELDELLAWSDVVSLHAPILPETHHMIGARELALMADHAIFINTARGWLVDHDALLTEAISGRLRILIDTPEPEPLPTDSPFYDLPNVVLTPHIAGALGNELRALSDLAITEIERFVAGLAPLHPVHKQDMERMAEGHHHHHH | soluble
MPGLEKTRIVDPILTNVAIGYKNAEYVGESLFPVVPVDKEQGKIPKWGAEAFRIYNTRRQIRSKTNRIEMDATTVPYSLEEEALEAPIDDRELEEAAEVLKLEMSRTKMLTDNIRLKMEKDQADVAQNVANYSPGHVEALSGTDKFSDPASKPIDVIGDARATVRSKIGIYPNVLLMGASVYEVLKNHSAIIDKIKYSQKGIATPTCSQKSST | not soluble
